Data taken from publication PMC5828360, “Identification and characterization of highly versatile peptide-vectors that bind non-competitively to the low-density lipoprotein receptor for in vivo targeting and delivery of small molecules and protein cargos” (PLoS ONE, 2018).

Target: human LDLR, endogenous on HUVEC (human (endogenous in HUVEC)) (UniProt P01130)
Experiment: flow cytometry on cells; 1.10^10 phage on 1.10^6 HUVEC, 20 min on ice, without or with LDL at 0.5 mg/mL; anti-M13 (anti-PVIII) and anti-hLDLR antibodies; signal in zone Q2

human LDLR, endogenous on HUVEC (human (endogenous in HUVEC)), sequence (P01130 22-860): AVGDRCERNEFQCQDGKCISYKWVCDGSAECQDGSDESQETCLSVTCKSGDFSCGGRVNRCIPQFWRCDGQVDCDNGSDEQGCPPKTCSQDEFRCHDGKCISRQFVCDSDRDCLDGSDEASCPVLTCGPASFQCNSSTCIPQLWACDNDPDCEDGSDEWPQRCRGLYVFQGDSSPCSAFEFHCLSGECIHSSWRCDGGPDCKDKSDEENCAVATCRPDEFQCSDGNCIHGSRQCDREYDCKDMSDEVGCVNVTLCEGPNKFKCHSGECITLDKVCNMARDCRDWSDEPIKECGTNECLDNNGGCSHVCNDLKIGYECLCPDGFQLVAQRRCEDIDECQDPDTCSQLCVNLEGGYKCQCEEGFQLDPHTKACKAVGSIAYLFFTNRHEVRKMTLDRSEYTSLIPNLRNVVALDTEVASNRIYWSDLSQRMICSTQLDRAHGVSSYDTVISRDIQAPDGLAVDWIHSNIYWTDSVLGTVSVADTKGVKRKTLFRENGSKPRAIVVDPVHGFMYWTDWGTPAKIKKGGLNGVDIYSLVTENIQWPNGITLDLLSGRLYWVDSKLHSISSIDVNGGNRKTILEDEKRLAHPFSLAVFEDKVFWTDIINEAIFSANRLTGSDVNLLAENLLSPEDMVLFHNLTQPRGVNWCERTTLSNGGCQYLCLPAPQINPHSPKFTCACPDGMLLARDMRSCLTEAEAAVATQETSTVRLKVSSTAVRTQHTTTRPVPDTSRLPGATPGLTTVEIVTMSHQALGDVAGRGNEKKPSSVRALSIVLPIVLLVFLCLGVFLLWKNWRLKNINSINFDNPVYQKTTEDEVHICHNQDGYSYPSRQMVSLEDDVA

low-density lipoprotein (LDL), P04114 28-4563
percent reduction of the VH549 phage signal (Q2) with LDL at 0.5 mg/mL: 56%
